Assay results reported in US20120315267A1 (GlaxoSmithKline, published 2012).

T1: human NAP2 (human, UniProt P02775 59-128)
T1 sequence (looked up): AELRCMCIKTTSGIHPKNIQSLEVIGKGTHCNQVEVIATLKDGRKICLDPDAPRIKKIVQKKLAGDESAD

T2: human ENA-78 (human, UniProt P42830 37-114, limits assumed)
T2 sequence (looked up): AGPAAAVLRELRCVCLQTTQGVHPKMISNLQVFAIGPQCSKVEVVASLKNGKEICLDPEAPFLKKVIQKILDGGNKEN

T3: human Gro-alpha (human, UniProt P09341 35-107)
T3 sequence (looked up): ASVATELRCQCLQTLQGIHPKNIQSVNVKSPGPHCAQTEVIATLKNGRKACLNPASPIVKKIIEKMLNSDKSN

T4: human Gro-gamma (human, UniProt P19876 35-107)
T4 sequence (looked up): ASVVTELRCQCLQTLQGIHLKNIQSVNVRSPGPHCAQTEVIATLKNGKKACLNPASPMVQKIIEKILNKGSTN

T5: human IL-8 (human, UniProt P10145 28-99, limits assumed)
T5 sequence (looked up): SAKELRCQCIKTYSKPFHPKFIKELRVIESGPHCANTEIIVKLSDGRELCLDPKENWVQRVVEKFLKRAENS

T6: human GCP-2 (human, UniProt P80162 38-114, limits assumed)
T6 sequence (looked up): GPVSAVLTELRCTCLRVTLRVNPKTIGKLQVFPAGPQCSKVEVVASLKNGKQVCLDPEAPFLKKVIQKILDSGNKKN

T7: human Gro-beta (human, UniProt P19875 35-107)
T7 sequence (looked up): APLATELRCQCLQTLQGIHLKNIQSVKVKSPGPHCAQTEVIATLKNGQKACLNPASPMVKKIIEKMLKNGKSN


Assays:
Experiment in all cases: cell-based or functional assay
human NAP2 = target: T1, human NAP2
human ENA-78 = target: T2, human ENA-78
human Gro-alpha = target: T3, human Gro-alpha
human Gro-gamma = target: T4, human Gro-gamma
human IL-8 = target: T5, human IL-8
human GCP-2 = target: T6, human GCP-2
human Gro-beta = target: T7, human Gro-beta

Row | Binder | FLIPR IC50 (human NAP2) [µg/mL] | FLIPR IC50 (human ENA-78) [µg/mL] | FLIPR IC50 (human Gro-alpha) [µg/mL] | FLIPR IC50 (human Gro-gamma) [µg/mL] | FLIPR IC50 (human IL-8) [µg/mL] | FLIPR IC50 (human GCP-2) [µg/mL] | FLIPR IC50 (human Gro-beta) [µg/mL]
1 | 2X907.15 (antibody, IgG1, V domains shown) VH: EVKLVESGGGLVKPGGSLKLSCAASGFTFSDYYMYWVRQSPEKRLEWVATVSDVGSYTYYSGSVRGRFTISRDNAKNNLYLQMSSLQSEDTAIYYCSRDRTLDYWGQGTSVIVTS VL: QIVLTQSPAIMSASPGEKVTITCNASSSVSYMHWFQQKPGTSPKLWIYSTSNLASGVPARFSGSGSGTSYSLTISRMEAEDAATYYCHQRSSFPPTFGGGTKLEIK | > 67 | 2.6 | > 67 | > 67 | > 67 | > 67 | > 67
2 | 2B12.1E1 (antibody, IgG2c, V domains shown) VH: EVQLQQSGPELVKPGASVKISCKASGYTFTDYYMNWVKQSHGKSLEWIGDINPNNGNTNYNQKFKGKATLTVDKSSSTAYMEFRSLTSEDSAVYYCAGLGRIFDYWGQGTTLTVSS VL: ENVLTQSPAIMSASPGEKVTMTCRASSSVSSTFLHWYQQKSGASPKLWIYSTSDLASGVPARFSGSGSGTSYSLTISSVEAEDAATYYCQQYSGYPWTFGGGTKLEIK | > 67 | > 67 | > 67 | > 67 | 1.6 | 40.9 | > 65.5
3 | 1L351.17 (antibody, IgG2b, V domains shown) VH: QAYLQQSGAELVRPGASVKMSCKASGYTFTSYNMHWVKQTPRQGLEWIGAIYPGNGDTSYNQKFKGKATLTVDKSSSTAYMQLSSLTSEDSAVYFCARDLYYFDYWGQGTTLTVSS VL: ENVLTQSPAIMSAFPGEKVTMTCRASSSVSSTYLHWYQQKSGASPKLWIYSTSDLASGVPARFSGSGSGTSYSLTISSVEAEDAATYYCQQFSGYPWTFGGGTKLEIK | > 67 | > 67 | 1.92 | 3.17 | > 67 | > 67 | 1.02
4 | 17D1.1D2 (antibody, IgG2c, V domains shown) VH: EVQLQQSGPELVKPGASVKISCKASGYTFTDYYMNWLRQSHGKSLEWIGDINPNNGGTNYNQKFKNKATLTVDKSSSTAYMELRSLTSEDSAVFYCAGLGRIFDYWGQGTTLTVSS VL: ENVLTQSPAIMSAFPGEKVTMTCRASSSVSSTYLHWYQQKSGASPKLWIYSTSDLASGVPARFSGSGSGTSYSLTISSVEAEDAATYYCQQFSGYPWTFGGGTKLEIK | > 200 | > 200 | > 146 | 144 | 2.5 | > 200 | 81.6
5 | 1L132.23 (antibody, IgG1, V domains shown) VH: QVQLQQPGAELVKPGASVKVSCKASGYTFTNYWMHWVRQRPGQGLEWIGRIHPSDNDTNYNQKFKDKATLTVDKSSNTAYMQLSSLTSEDSAVYYCAIGVYDGFIGLWGQGTSVTVSS VL: DIQMTQSPASQSASLGESVTITCLASQTIGTWLAWYQQKPGKSPQLLIYAATRLADGVPSRFSGSGSGTKFSFKISSLQAEDFVSYYCQQLSSTPWTFGGGTKLEIK | > 67 | > 67 | > 67 | > 67 | > 67 | > 67 | 0.69
6 | 9D12.1H4 (antibody, IgG1, V domains shown) VH: EVQLQQSGPELVKPGASVRMSCKASGNTVIDYNIHWVKQSQGKSLEWIGYINPNSGGTGYNEKFKDKATLTINKSSSTAHMDLRSLTSEDSAVYYCTRFDFWGQGTTLTVSS VL: DVLMTQTPLSLPVSLGDQASISCRSTQSIVPVNGNTHLEWYLHKPGQSPKLLIYKVSNRFSGVPDRFSGSGSGTDFTLKISRVEAEDLGVYYCFQASHVPWTFGGGTKLEIK | > 67 | 14.4 | > 67 | > 67 | 3.4 | 6.6 | > 67
7 | 5D2.2D10 (antibody, V domains shown) VH: QIQLVQSGPELKKPGETVKISCKASGYIFTAYGMSWVKQAPGKGLKWMGWINTYSGVPTYADHFKGRFDFSLETSASTAYLQINNLKNEDTATYFCARPTVVDPWYFDVWGTGTTVTVSS VL: DIQMTQSPASLSVSVGETVTITCRASENIYSNLAWYQQKQGKSPQLLVYAATNLGDGVPSRFSGSGSGTQYSLKINSLQSEDFGSYYCQHFWTTPWTFGGGTKLEIK | > 200 | 4.7 | > 200 | > 200 | > 200 | > 200 | 77.4
8 | 2X810.3 (antibody, IgG1, V domains shown) VH: QIQLQQSGPEVVKPGASVKISCKASGYIFTDNYIDWVQQRPGQGLEWIGWIFPGSGNTKYNEKFKGKATLTVDTFSSTAYMQLSSLTSEDTAVYFCAREIDYDYDGFFDVWGAGTTVTVSS VL: DIVMTPSHTFMSTSVGDRVIITSKASQDVGSAVAWYQQKPGQSPTLLIYWASTRHTGVPDRFTGSGSGTDFTLTISNLQSEDLADYFCQQYSTYPLTFGAGTKLELK | > 67 | 14.6 | > 67 | > 67 | > 67 | 24.6 | > 67
9 | 2X352.3 (antibody, IgG1, V domains shown) VH: QIQLVQSGPELKKPGETVKISCKASGYTLTYYGIHWVTQTPGKGLNWMGWINTNTGEPTYVEEFKGRFAFSLETSASTAYLQITDLKNEDTATYFCAKATYDGYSDYWGQGTTLTVSS VL: DIQMTQSPASLSVSVGESVTITCRASENIYSNLAWYQQKQGKSPQLLVYDATNLAHGVPSRFSGSGSGTQFSLRINSLQSEDFGSYYCQHFWGTPLTFGAGTRLELK | > 67 | 4.99 | 2.06 | 7.43 | > 67 | > 67 | 1.12
10 | 7A12.1F10 (antibody, IgG1, V domains shown) VH: QVQLQQSGAELVKPGASVKLSCKASGYIFTSNDINWVRQRPEQGLEWIGWIFPGDNSTKFNEKFRDKATLTTDKSSSTAYMQLSGLTSEDSAVYFCATFYGSTYGYYFDYWGQGTTLTVSS VL: DIVMTQSHKFMSTSVGDRVSITCKASQDVGTAVAWYQQKPGQSPKLLIYWTDTRHTGVPDRFTGSGSGTDFTLTISNVESEDCVDYFCHQYNNYPLTFGAGTKLELK | > 200 | 2.4 | 9.9 | > 200 | > 200 | 124 | > 200
11 | 1A1.4C6 (antibody, IgG1, V domains shown) VH: EVQLQQSGPELVKPGASVKISCKASGYTFIDYYMNWVKQSQGKSLEWIGDVNPDDGDTTYNQQFKDKATLTVDKSSSTAYMELRSLTSEDSAVYYCARDDRTSGYFDVWGTGTTVTVSS VL: DIQMTQSTSSLSASLGDRVTISCRASQDIRNYLNWFQQKPDGTVKLLIYYTSIVHSRVPSRFSGSGSGTDYSLTINNLDQEDIATYFCQQANTLPWTFGGGTKLETK | 123 | 12.3 | 2.4 | 19.2 | > 200 | 11.2 | > 168
